Source: patent US20160038588A1 (Amgen, published 2016)
Where no end group is shown, it is not given here.

Legend:
[1] = target: T1, recombinant mature myostatin (human, produced in E. coli) (human, UniProt O14793 267-375); experiment: cell-based or functional assay
T1 sequence (looked up): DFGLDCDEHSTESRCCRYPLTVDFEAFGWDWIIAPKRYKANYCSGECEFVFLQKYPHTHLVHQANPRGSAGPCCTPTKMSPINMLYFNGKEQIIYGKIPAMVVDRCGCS

[2] = target: T1, recombinant mature myostatin (human, …); experiment: cell-based or functional assay; remark: listed apart in the source

Binder	IC50, C2C12 pMARE-luc assay [1] [nM]	IC50 (read off the curve) [2] [µM]
recombinant human activin receptor IIB/Fc chimera (R&D Systems) (Fc fusion, UniProt Q13705 19-134, looked up, not shown: a dimerising Fc or GST) SGRGEAETRECIYYNANWELERTNQSGLERCEGEQDKRLHCYASWRNSSGTIELVKKGCWLDDFNCYDRQECVATEENPQVYFCCCEGNFCNERFTHLPEAGGPEVTYEPPPTAPT	~83	
QGHCTRWPWMCPPY (also: cysteine-constrained, bridge type not given here) [TN8-19 peptide]		~20
